Holding throughout (assay): indirect ELISA, plates coated with TcfA protein fragment
A general note: ELISA stands for enzyme-linked immunosorbent assay.

Assay [1] concerns the target T1, TcfA peptide amino acids 288-304 conjugated to bovine serum albumin (Bordetella pertussis, conjugated to bovine serum albumin (BSA)).
T1 construct: Protein fragment coated on ELISA plates; BSA conjugate
T1 peptide: QLPERGDDAGPKPPEGE

In assay [2] the target is T2, TcfA peptide amino acids 140-160 conjugated to bovine serum albumin (Bordetella pertussis, conjugated to bovine serum albumin (BSA)).
T2 construct: Protein fragment coated on ELISA plates; BSA conjugate; also called aa140-160
T2 peptide: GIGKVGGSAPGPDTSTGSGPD

Assay [3] has as its target T3, TcfA protein fragment amino acids 40-374 (Bordetella pertussis).
T3 construct: Not conjugated to BSA
T3 chain: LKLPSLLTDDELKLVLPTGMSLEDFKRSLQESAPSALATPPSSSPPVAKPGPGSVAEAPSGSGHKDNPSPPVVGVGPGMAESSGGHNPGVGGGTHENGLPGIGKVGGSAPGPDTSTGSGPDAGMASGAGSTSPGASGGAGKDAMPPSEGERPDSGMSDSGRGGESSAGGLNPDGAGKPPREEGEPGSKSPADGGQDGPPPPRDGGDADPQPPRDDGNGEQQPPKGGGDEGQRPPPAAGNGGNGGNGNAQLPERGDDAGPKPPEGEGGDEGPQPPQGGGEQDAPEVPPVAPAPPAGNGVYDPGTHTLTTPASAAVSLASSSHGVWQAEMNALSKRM

Assay [4] concerns the target T4, TcfA peptide amino acids 305-323 conjugated to bovine serum albumin (Bordetella pertussis, conjugated to bovine serum albumin (BSA)).
T4 construct: Protein fragment coated on ELISA plates; BSA conjugate
T4 peptide: GGDEGPQPPQGGGEQDAPE

We go through 9 molecules from patent US20240092877A1 (DXDISCOVERY, published 2024).

Numbering of substitutions follows the chain as printed.

B1: anti-TcfA monoclonal antibody 23F8 (antibody, V domains shown)
VH: EVQLVESGGGLVKPGGSRKLSCAASGFTFSDYGMHWVRQAPEKGLEWVAYISSGSRTIYYADTVKGRFTISRDNAKNTLFLQMTSLRSEDTAMYYCARLGYGYDWYFDVWGTGTTVTVSS
VL: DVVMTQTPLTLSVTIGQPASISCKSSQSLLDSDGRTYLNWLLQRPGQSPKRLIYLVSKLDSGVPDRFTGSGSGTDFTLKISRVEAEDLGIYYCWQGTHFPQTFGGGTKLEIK
As for B1, the binding result in assay [1] is reported as “binds”.

B2: anti-TcfA monoclonal antibody 3E6 (antibody, V domains shown)
VH: EVKLVESGGGLVQPGGSLRLSCATSGFTFTDYYMSWVRQPPGKALEWMGFIRNKAKGYTTDYSASVKGRFTISRDDSQSILYLQMNTLRPEDSATYYCARNYDYSMDYWGQGTSVTVSS
VL: DIQLTQSPASLSASVGETVTITCRASDNIHKYLAWYQQKQGKSPQRLVYNAKTLADGVPSRFNGSGSGTQYSLKINSLQPEDFGIYYCQHFWSTPLTFGAGTKLELK
As to B2, the binding result in assay [2] was “binds”.

B3: anti-TcfA monoclonal antibody 10B1 (antibody, V domains shown)
VH: EVQLQQSGAELVKPGASVKLSCTASGFNIKDTYIHWVKQRPEQGLEWIGRIDPANGNTIYASKFQGKAPITAVTSSNTAYMQFSSLTSGDTAVYYCTAMDYWGQGTSVTVSS
VL: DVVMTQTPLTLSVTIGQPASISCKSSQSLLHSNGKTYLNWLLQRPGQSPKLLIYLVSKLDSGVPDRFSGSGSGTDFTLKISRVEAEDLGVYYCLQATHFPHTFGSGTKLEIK
Regarding B3, the binding result in assay [2] is on record as “binds”.

B4: anti-TcfA monoclonal antibody 7E11 (antibody, V domains shown)
VH: B3 VH with T58I, K67E, P69T, V73D, F83L, T97S
VL: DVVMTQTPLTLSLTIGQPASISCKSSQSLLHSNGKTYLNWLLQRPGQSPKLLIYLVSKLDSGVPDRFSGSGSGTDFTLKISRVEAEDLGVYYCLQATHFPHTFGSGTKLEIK
Consider B4, for which the binding result in assay [2] is “binds”.

B5: anti-TcfA monoclonal antibody 18B2 (antibody, V domains shown)
VH: QVQLQQSGAELVRPGTSVKMSCKAAGYTFTNYWIGWVKQRPGHGLEWIGDIYPGGVYTNYNENFKGKATLTADTSSSTAHMQLSSLTSEDSAIYYCVRGGKYGNFFAMDYWGQGTSVTVSS
VL: DIVITQDELSNPVTSGESVSISCRSSKSLLYKDGKTYLNWFLQRPGQSPQLLIYLMSTRASGVSDRFSGSGSGTDFTLEISRVKAEDVGVYYCQQLVEYPFTFGSGTKLEIK
Regarding B5, the binding result in assay [3] is “binds”.

B6: anti-TcfA monoclonal antibody 14G11 (antibody, V domains shown)
VH: EVKLVESGGGLVQPGGSLSLSCAASGFTFTDYYMSWVRQPPGKALEWLGFIRNKANGYTTEYSASVKGRFTISRDNSQSILYLQMNALRAEDSATYYCARYRRDYYGSLNYYTMDYWGQGTSVTVSS
VL: DIQMTQSPASLSASVGETVTITCRASENIYSYLAWYQQKQGKSPQLLVYNAKTLAEGVPSRFSGSGSGTQFSLKINSLQPEDFGSYYCQNHYGIPLTFGAGTKLELK
With B6, in assay [4], the binding result is listed as “binds”.

B7: anti-TcfA monoclonal antibody 14D12 (antibody, V domains shown)
VH: EVMLVESGGALVKPGGSLKLSCAASGITFSNYAMSWIRQTPEKRLEWVASISSGGSYIYYSDSVKGRFTISRDNARNTLNLQMSSLRSEDTAMYYCVRGAHGNFDYWGQGTTLTVSS
VL: DIVLTQSPASLAVSLGQRATISCRTSETVDYDGDSYMNWYQQKSGQPPKLLISGASNVESGVPARFSGSGSGTDFSLNIHPVEEDDITMYFCQQNRKLPYTFGSGTKLEMK
On to B7, for which the binding result in assay [1] is “binds”.

B8: anti-TcfA monoclonal antibody 13E11 (antibody, V domains shown)
VH: EVQLVESGGGLVKPGGSRKLSCAASGFTFSDYGMHWVRQAPEKGLEWVAYISSGSSTIYYADTVKGRFTISRDNAKNTLFLQMTSLRSEDTAMYYCARPRSGRYFDYWGQGTTLTVSS
VL: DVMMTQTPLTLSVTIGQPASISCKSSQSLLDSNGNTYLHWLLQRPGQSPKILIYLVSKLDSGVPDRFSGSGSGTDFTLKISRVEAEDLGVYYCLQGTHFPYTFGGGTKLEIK
For the molecule B8, the binding result in assay [1] and in assay [4] was “binds” throughout.

B9: anti-TcfA monoclonal antibody 20F4 (antibody, V domains shown)
VH: QIQLVQSGPELKKPGETVKISCKASGYTFTNYGMNWVKQAPGKGLKWMGWINTYTGEPTYADDFKGRFAFSLETSATTAYLQINNLKNEDTATYFCARAATGYFDYWGQGTTLTVSS
VL: DIVMSQSPSSLAVSAGEKVTMSCKSSQSLLYSSNQKNYLAWYQQKPGQSPKLLIYWASTRESGVPDRFTGSGSGTDFTLTISSVKAEDLAVYYCQQYYNEYTFGGGTKLEIK
As to B9, the binding result in assay [4] is recorded as “binds”.
